Test results taken from paper doi:10.1101/2023.10.09.561572.

Target: T1, SERF2 (Homo sapiens) (UniProt P84101)
T1 sequence: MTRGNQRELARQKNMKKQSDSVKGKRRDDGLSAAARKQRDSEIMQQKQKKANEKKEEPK
Experiment: fluorescence polarization
Settings: FP: 20 mM NaPi pH 7.4, 100 mM KCl, 25 C (20-100 nM FAM-RNA or 200 nM AF488-SERF2); NMR: same buffer, 4 C

Substance: TERRA60 rG4
- Kd: < 1000 nM

Substance: polyG RNA
- Kd: < 1000 nM
